± gives the standard deviation of the averaged measurements.
Assay: total protein half-life in vivo (active degradation + dilution); higher = more stable protein
[1] = E. coli NCM3722 delta-clpP delta-lon delta-hslV, growth: N-lim chemostat, doubling time 6 h
[2] = E. coli NCM3722 delta-clpP, growth: N-lim chemostat, doubling time 6 h
[3] = E. coli NCM3722 delta-hslV, growth: N-lim chemostat, doubling time 6 h
[4] = E. coli NCM3722 delta-lon, growth: N-lim chemostat, doubling time 6 h
[5] = E. coli NCM3722 delta-smpB, growth: N-lim chemostat, doubling time 6 h
[6] = wild type E. coli NCM3722, growth: C-lim chemostat, doubling time 3 h
[7] = wild type E. coli NCM3722, growth: C-lim chemostat, doubling time 6 h
[8] = wild type E. coli NCM3722, growth: C-lim chemostat, doubling time 12 h
[9] = wild type E. coli NCM3722, growth: N-lim chemostat, doubling time 6 h
[10] = wild type E. coli NCM3722, growth: N-lim chemostat, doubling time 12 h
[11] = wild type E. coli NCM3722, growth: P-lim chemostat, doubling time 6 h
[12] = wild type E. coli NCM3722, growth: P-lim chemostat, doubling time 12 h

| Sequence | total protein half-life in vivo [1] | total protein half-life in vivo [2] | total protein half-life in vivo [3] | total protein half-life in vivo [4] | total protein half-life in vivo [5] | total protein half-life in vivo [6] | total protein half-life in vivo [7] | total protein half-life in vivo [8] | total protein half-life in vivo [9] | total protein half-life in vivo [10] | total protein half-life in vivo [11] | total protein half-life in vivo [12] |
| --- | --- | --- | --- | --- | --- | --- | --- | --- | --- | --- | --- | --- |
| MTPFMTEDFLLDTEFARRLYHDYAKDQPIFDYHCHLPPQQIAEDYRFKNLYDIWLKGDHYKWRAMRTNGVAERLCTGDASDREKFDAWAATVPHTIGNPLYHWTHLELRRPFGITGKLLSPSTADEIWNECNELLAQDNFSARGIMQQMNVKMVGTTDDPIDSLEHHAEIAKDGSFTIKVLPSWRPDKAFNIEQATFNDYMAKLGEVSDTDIRRFADLQTALTKRLDHFAAHGCKVSDHALDVVMFAEANEAELDSILARRLAGETLSEHEVAQFKTAVLVFLGAEYARRGWVQQYHIGALRNNNLRQFKLLGPDVGFDSINDRPMAEELSKLLSKQNEENLLPKTILYCLNPRDNEVLGTMIGNFQGEGMPGKMQFGSGWWFNDQKDGMERQMTQLAQLGLLSRFVGMLTDSRSFLSYTRHEYFRRILCQMIGRWVEAGEAPADINLLGEMVKNICFNNARDYFAIELN [P0A8G3] | 4.91 ± 0.32 h | 4.13 ± 0.56 h | 4.83 ± 1.5 h | 4.12 ± 0.18 h | 3.84 ± 0.12 h | 2.87 ± 0.56 h | 5.94 ± 0.12 h | 11.9 ± 0.95 h | 4.02 ± 0.48 h | 6.3 ± 0.21 h | 5.26 ± 0.087 h | 9.95 ± 0.88 h |
| MTPGGQAQIGNVDLVKQLNSAAVYRLIDQYGPISRIQIAEQSQLAPASVTKITRQLIERGLIKEVDQQASTGGRRAISIVTETRNFHAIGVRLGRHDATITLFDLSSKVLAEEHYPLPERTQQTLEHALLNAIAQFIDSYQRKLRELIAISVILPGLVDPDSGKIHYMPHIQVENWGLVEALEERFKVTCFVGHDIRSLALAEHYFGASQDCEDSILVRVHRGTGAGIISNGRIFIGRNGNVGEIGHIQVEPLGERCHCGNFGCLETIAANAAIEQRVLNLLKQGYQSRVPLDDCTIKTICKAANKGDSLASEVIEYVGRHLGKTIAIAINLFNPQKIVIAGEITEADKVLLPAIESCINTQALKAFRTNLPVVRSELDHRSAIGAFALVKRAMLNGILLQHLLEN [P0AF20] | 5.96 ± 0.13 h | 6.14 ± 0.17 h | 5.92 ± 0.068 h | 6.27 ± 0.59 h | 5.92 ± 1.2 h | 2.98 ± 0.067 h | 6.44 ± 0.24 h | 11.3 ± 1.7 h | 5.9 ± 0.28 h | 13 ± 0.3 h | 6.58 ± 0.7 h | 15.1 ± 0.32 h |
| MTPHVMKRDGCKVPFKSERIKEAILRAAKAAEVDDADYCATVAAVVSEQMQGRNQVDINEIQTAVENQLMSGPYKQLARAYIEYRHDRDIEREKRGRLNQEIRGLVEQTNASLLNENANKDSKVIPTQRDLLAGIVAKHYARQHLLPRDVVQAHERGDIHYHDLDYSPFFPMFNCMLIDLKGMLTQGFKMGNAEIEPPKSISTATAVTAQIIAQVASHIYGGTTINRIDEVLAPFVTASYNKHRKTAEEWNIPDAEGYANSRTIKECYDAFQSLEYEVNTLHTANGQTPFVTFGFGLGTSWESRLIQESILRNRIAGLGKNRKTAVFPKLVFAIRDGLNHKKGDPNYDIKQLALECASKRMYPDILNYDQVVKVTGSFKTPMGCRSFLGVWENENGEQIHDGRNNLGVISLNLPRIALEAKGDEATFWKLLDERLVLARKALMTRIARLEGVKARVAPILYMEGACGVRLNADDDVSEIFKNGRASISLGYIGIHETINALFGGEHVYDNEQLRAKGIAIVERLRQAVDQWKEETGYGFSLYSTPSENLCDRFCRLDTAEFGVVPGVTDKGYYTNSFHLDVEKKVNPYDKIDFEAPYPPLANGGFICYGEYPNIQHNLKALEDVWDYSYQHVPYYGTNTPIDECYECGFTGEFECTSKGFTCPKCGNHDASRVSVTRRVCGYLGSPDARPFNAGKQEEVKRRVKHLGNGQIG | 2.17 ± 0.33 h | 1.045 ± 0.0046 h | 0.844 ± 0.15 h | 1.02 ± 0.11 h | 0.762 ± 0.051 h | 2.63 ± 0.5 h | 2 ± 0.24 h | 2.72 ± 0.57 h | 1.67 ± 0.91 h | 1.49 ± 0.42 h | 2.99 ± 0.31 h | 4.91 ± 0.075 h |
| MTPTIELICGHRSIRHFTDEPISEAQREAIINSARATSSSSFLQCSSIIRITDKALREELVTLTGGQKHVAQAAEFWVFCADFNRHLQICPDAQLGLAEQLLLGVVDTAMMAQNALIAAESLGLGGVYIGGLRNNIEAVTKLLKLPQHVLPLFGLCLGWPADNPDLKPRLPASILVHENSYQPLDKGALAQYDEQLAEYYLTRGSNNRRDTWSDHIRRTIIKESRPFILDYLHKQGWATR | 4.82 ± 1 h | 3.94 ± 0.13 h | 4.1 ± 0.27 h | 4.4 ± 0.54 h | 3.98 ± 0.23 h | 2.93 ± 0.35 h | 4.8 ± 0.82 h | 9.24 ± 0.9 h | 3.89 ± 0.47 h | 7.96 ± 0.79 h | 5.01 ± 0.35 h | 9.93 ± 2.7 h |
| MTQFASPVLHSLLDTDAYKLHMQQAVFHHYYDVHVAAEFRCRGDDLLGIYADAIREQVQAMQHLRLQDDEYQWLSALPFFKADYLNWLREFRFNPEQVTVSNDNGKLDIRLSGPWREVILWEVPLLAVISEMVHRYRSPQADVAQALDTLESKLVDFSALTAGLDMSRFHLMDFGTRRRFSREVQETIVKRLQQESWFVGTSNYDLARRLSLTPMGTQAHEWFQAHQQISPDLANSQRAALAAWLEEYPDQLGIALTDCITMDAFLRDFGVEFASRYQGLRHDSGDPVEWGEKAIAHYEKLGIDPQSKTLVFSDNLDLRKAVELYRHFSSRVQLSFGIGTRLTCDIPQVKPLNIVIKLVECNGKPVAKLSDSPGKTICHDKAFVRALRKAFDLPHIKKAS | 4.31 ± 1.6 h | 3.07 ± 0.44 h | 2.98 ± 0.068 h | 4.11 ± 0.88 h | 2.95 ± 0.13 h | 2.28 ± 0.31 h | 4.04 ± 0.27 h | 5.56 ± 0.35 h | 2.92 ± 0.065 h | 4.49 ± 0.41 h | 3.57 ± 0.071 h | 5.37 ± 1 h |
